The chains are these.
B1: SJL-564-1 (antibody, V domains shown)
VH: QAYLQQSGAELARPGASVKLSCKASGYTFTSYGISWVKQRTGQGLEWIGEIYPRSGNTYYNEKFKGKATLTADKSSSTAYMELRSLTSEDSAVYFCARSTYSNYVYAMDYWGQGTSVTVSS
VL: DVVLTQTPLSLPVSLGDQASISCRSSQSIVHSNGNTYLEWYLQKPGQSPKLLIYKVSNRFSGVPDRFSGSGSGTDFTLKISRVEAEDLGVYYCFQGSHVPYTFGGGTKLEIK
B2: SJL-565-1 (antibody, V domains shown)
VH: QAYLQQSGPELVKPGASVKISCKASGYTFTDYYINWVKQRPGQGLEWIGWIYPGSGNTKYNEKFKGKATLTVDTSSSTAYMQLSSLTSEDSAVYFCARSVYDYDEDWGQGTRVTVSA
VL: DIVMTQSQKFMSTSVGDRVSVTCKASQNVGTNVAWYQQKPGQSPKALIYSASYRYSGVPDRFTGSGSGTDFTLTISNVQSEDLAEYFCQQYNSYPFTFGSGTKLEIK
B3: SJL-565-3 (antibody, V domains shown)
VH: QAYLQQSGPELVKPGASVKISCKASGYTFTDYYINWVKQRPGQGLEWIGWIYPGSGNTKYNEKFKGKATLTVDTSSSTAYMHVSSLTSEDSAVYFCSSSRYDYDEDWGQGTLVTVSA
VL: DIVMTQSQKFMSTSVGDRVSVTCKASQNVGTNVAWYQQKPGQSPKALIYSASYRYSGVPDRFTGSGSGTDFTLTISNVQSEDLAEYFCQQYNSYPFTFGSGTKLEIK
B4: Balb-1 (antibody, V domains shown)
VH: QAYLQQSGPELKKPGETVKISCKASGYTFTNYGMNWVKQAPGKGLKWMGWINTNTGEPTYAEEFKGRFAFSLETSASTAYLQINNLKNEDTATYFCASNYYWYFDVWGAGTTVTVSS
VL: DVVLTQSPATLSVTPGDSVSLSCRASQSISNNLHWYQQKSHESPRLLIKYASQSISGIPSRFSGSGSGTDFTLSINSVETEDFGMYFCQQSNSWPLTFGAGTKLELK

Chain of recombinant programmed cell death protein 1 (PD-1) (Q15116 25-170): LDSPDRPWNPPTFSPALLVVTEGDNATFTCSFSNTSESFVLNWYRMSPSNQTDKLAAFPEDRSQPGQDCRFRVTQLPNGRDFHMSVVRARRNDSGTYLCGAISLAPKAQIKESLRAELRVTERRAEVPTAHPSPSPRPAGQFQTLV

The assay concerns the target recombinant programmed cell death protein 1 (PD-1) (Homo sapiens, UniProt Q15116).
For B1, the binding result is listed as “binds”.

Turning to B2, the binding result was “binds”.

For B3, the binding result is “binds”.

As to B4, the binding result is “binds”.

Values taken from PMC5680806 (mAbs, 2017).
